B1: cr779 (nucleic acid)
guide: GTTTAAGAGCTAAGCTGGAAACAGCATAGCAAGTTTAAATAAGGCTAGTCCGTTATCAAATTGAAAAATTGGTAACGAGTCGTTACT
modifications: listed as DNA, chemistry not fully specified
B2: cr168 (nucleic acid)
guide: GTTTAAGAGCTAAGCTGGAAACAGCATAGCAAGTTTAAATAAGACTAGTTCGTTATCAAATTGAAAAATTGGCACCGAGTCGGTGCT
modifications: listed as DNA, chemistry not fully specified
B3: cr575 (nucleic acid)
guide: GTTTAAGAGCTAAGCTGGAAACAGCATAGCAAGTTTAAATAAGGCTAGTCCGTTATCAACTTGAAAAAGTGGCACGGAGTCGGTGCT
modifications: listed as DNA, chemistry not fully specified
B4: cr117 (nucleic acid)
guide: GTTTAAGAGCTAAGCTGGAAACAGCATAGCAAGTTTAAATAAGGCTAGTCCGTTATCAACTTGGAAAAGTGGCACCGGGTCGGTGCT
modifications: listed as DNA, chemistry not fully specified
B5: cr278 (nucleic acid)
guide: GTTTAAGAGCTAAGCTGGAAACAGCATAGCAAGTTTAAATAAGGCTAGCCCGTTATCAACTTGAAAAAGTGGCACCGAATCGGTGCT
modifications: listed as DNA, chemistry not fully specified
B6: cr439 (nucleic acid)
guide: GTTTAAGAGCTAAGCAGGAAACAGCATAGCAAGTTTAAATAAGGCTAGTCCGTTATCAACTTGAAAAAGTGGCACCGAGTCGGTGCT
modifications: listed as DNA, chemistry not fully specified
B7: cr742 (nucleic acid)
guide: GTTTAAGAGCTAAGCTGGAAACAGCATAGCAAGTTTAAATAAGGATATTCCGTTATCAACTCGAAAGAGTGGCACCGAGTCGGTGCT
modifications: listed as DNA, chemistry not fully specified
B8: cr568 (nucleic acid)
guide: GTTTAAGAGCTAAGCTGGAAACAGCATAGCAAGTTTAAATAAGGCTAGTCCGTTATCATCGTGAAAACGAGGCAACGAGTCGTTGCT
modifications: listed as DNA, chemistry not fully specified
B9: cr725 (nucleic acid)
guide: GTTTAAGAGCTAAGCTGGAAACAGCATAGCAAATTTAAATAAGGCTAGTCCGTTATCAACTTGAAAAAGTGGCACCGAGTCGGTGCT
modifications: listed as DNA, chemistry not fully specified
B10: cr474 (nucleic acid)
guide: GTTTAAGAGCTAAGCTGGAAACAGCATAGCAAGTTTAAATAAGGCTAGTCCGTTATCAACTTGAAAAAGTGGCACCTAGTCGGTGCT
modifications: listed as DNA, chemistry not fully specified
B11: cr867 (nucleic acid)
guide: GTTTAAGAGCTAAGCTGGAAACAGCATAGCAAGTTTAAATAAGGCTAGTTCGTTATCAACTTGAAAAAGTGGCACCGAGTCGGTGCT
modifications: listed as DNA, chemistry not fully specified
B12: cr887 (nucleic acid)
guide: GTTTAAGAGCTAAGCTGGAAACAGCATAGCCAGTTTAAATAAGGCTCGTCCGTTATCAACTTCAAAAAGTGGCACCGAGTCGGTGCT
modifications: listed as DNA, chemistry not fully specified
B13: cr596 (nucleic acid)
guide: GTTTAAGAGCTAAGCTGGAAACAGCATAGCAAGTTTAAATAAGGCTAGTCCGTTATCAACTTGAAAAAGTGGGACCGAGTCGGTGCT
modifications: listed as DNA, chemistry not fully specified
B14: cr292 (nucleic acid)
guide: GTTTAAGAGCTAAGCTGGAAACAGCATAGCAAGTTTAAATAAGGCTAGTCCGTTATCAACTTGAAAAAGTCGCACCGAGTCGGTGCT
modifications: listed as DNA, chemistry not fully specified
B15: cr635 (nucleic acid)
guide: GTTTAAGAGCTAAGCTGGAAACAGCATAGCAAGTTTAAATAAGGCTAGTCCGTTATCAACTTGAAAAAGTGGCACCGGGTCGGTGCT
modifications: listed as DNA, chemistry not fully specified
B16: cr594 (nucleic acid)
guide: GTTTAAGAGCTAAGCTGGAAACAGCATTGCAAGTTTAAATAGGGCTAGTCCGCTATCAACTTGAAAAAGTGGCACCGAGTCGGTGCT
modifications: listed as DNA, chemistry not fully specified
B17: cr015 (nucleic acid)
guide: GTTTACGAGCTAAGCTGGAAACAGCATAGCAAGTTTAAATAAGGCTAGTCCGTTATCAACTTGAAAAAGTGGCACCGAGTCGGTGCT
modifications: listed as DNA, chemistry not fully specified
B18: cr522 (nucleic acid)
guide: GTTTAAGAGCTAAGCTGGAAACAGCATTGCAAGTTTAAATAAGGCTAGTCCGTTGTCAACTTGAAAAAGTGGCACCGAGCCGGTGCT
modifications: listed as DNA, chemistry not fully specified
B19: cr539 (nucleic acid)
guide: GTTTAAGAGCTAAGCTGGAAACAGCATAGCAAGTTTAAATAAGTCTAGTACGTTATCAATTGGAAACAATGGCACCGAGTCGGTGCT
modifications: listed as DNA, chemistry not fully specified
B20: cr505 (nucleic acid)
guide: GTTTAAGAGCTAAGCTGGAAACAGCATTGCAAGTTTAAATAGGGCTAGTCCGTTATCAACTTGAAAAAGTGGCACCGATTCGGTGCT
modifications: listed as DNA, chemistry not fully specified
B21: cr426 (nucleic acid)
guide: GTTTAAGAGCTAAGCTGGAAACAGCATAGCAAATTTAAATAAGGCTAGTCCGCTATCAACTTGAAAAAGTGGCACCGAGTCGGTGCT
modifications: listed as DNA, chemistry not fully specified
B22: cr734 (nucleic acid)
guide: GTTTAAGAGCTAAGCTGGAAACAGCATCGCAAGTTTAAATAAGGCTAGTCCGTTCTCAACTTGAAAAAGTCGCACCGAGTCGGTGCT
modifications: listed as DNA, chemistry not fully specified
B23: cr622 (nucleic acid)
guide: GTTTAAGAGCTAAGCTGGAAACAGCATAGCAAGTTTAAATAAGGCTAGTCCGTTATCAGCTGGAAACAGCGGCACCGAGTCGGTGCT
modifications: listed as DNA, chemistry not fully specified
B24: cr723 (nucleic acid)
guide: GTTTAAGAGCTAAGCTGGAAACAGCATAGCAAGTTTAAATAAGGCTAGTCCGTTATCAACCTGAAAAGGTGGCAGCGAGTCGCTGCT
modifications: listed as DNA, chemistry not fully specified
B25: cr457 (nucleic acid)
guide: GTTTAAGAGCTAAGCTGGAAACAGCATAGCAAGTTTAAATAAGGCTAGTCCGTTATCAACTTGAAAAAGTGGCACCGAGTCGGTTCT
modifications: listed as DNA, chemistry not fully specified
B26: cr341 (nucleic acid)
guide: GTTTAAGAGCTAAGCTGGAAACAGCATAGCAAGTTTAAATAAGTCTAGTACGTTATCAACTTGAAAAAGTGCTACCGAGTCGGTAGT
modifications: listed as DNA, chemistry not fully specified
B27: cr555 (nucleic acid)
guide: GTTTAAGAGCTAAGCTGGAAACAGCATAGCAAGTTTAAATAAGTCTAGTACGTTATCAACTTGAAAAAGTGGCACCGAGTCGGTGCT
modifications: listed as DNA, chemistry not fully specified
B28: cr695 (nucleic acid)
guide: GTTTAAGAGCTAAGCTGGAAACAGCATAGCAAGTTTAAATAAGGCTAGTCCGATGTCAACTTGTAAAAGTGGCACCGAGTCGGTGCT
modifications: listed as DNA, chemistry not fully specified
B29: cr763 (nucleic acid)
guide: GTTTAAGAGCTAAGCTGGAAACAGCATAGCAAGTTTAAATAAGGCTAGCCCGTTATCAACTTGAAAAAGTGGCACCGAGTCGGTGCT
modifications: listed as DNA, chemistry not fully specified
B30: cr875 (nucleic acid)
guide: GTTTAAGAGCTAAGCTGGAAACAGCATAGCAAGTTTAAATAAGGCTAGTCCGTTATCACCTGGAAACAGGGGCACCCAGTGGGTGCT
modifications: listed as DNA, chemistry not fully specified
B31: cr645 (nucleic acid)
guide: GTTTAAGAGCTAAGCTGGAAACAGCATAGCAAGTTTAAATAAGCCTAGTGCGTTATCAACGTGAAAACGTGGCACGGAGTCCGTGCT
modifications: listed as DNA, chemistry not fully specified

Each molecule was assayed on K562 CRISPRi cells (assay: Constant region variant library pooled growth screen, K562). Conditions: sgRNA constant region variants; activity relative to the original, un-modified constant region cr995.
Type: cell-based, human
Outline: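 Growth screens in K562 CRISPRi cells were harvested 4-8 days post-selection at >2000× library coverage. Each variant's phenotype was referenced to the unmodified constant region with the same targeting sequence.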
B1 showed a Mean relative activity of 0.7512. B2 showed a Mean relative activity of 0.7238. B3 showed a Mean relative activity of 0.6955. Molecule B4 has a Mean relative activity of 0.6966. For B5, the Mean relative activity was 0.7368. B6 was tested, and the Mean relative activity was 0.7506. B7 showed a Mean relative activity of 0.7141. With B8 the Mean relative activity was 1.054. B9 showed a Mean relative activity of 0.7094. For B10, the Mean relative activity was 0.7254. Molecule B11 has a Mean relative activity of 0.7502. Molecule B12 has a Mean relative activity of 0.7504. B13 showed a Mean relative activity of 0.69. For B14, the Mean relative activity was 0.6902. For B15, the Mean relative activity was 0.7174. In the case of B16, the Mean relative activity is reported as 0.7395. With B17 the Mean relative activity was 0.7022. In the case of B18, the Mean relative activity is reported as 0.7084. Work on B19 yielded a Mean relative activity of 0.7135. B20 was tested, and the Mean relative activity was 0.7459. In the case of B21, the Mean relative activity is reported as 0.7265. Molecule B22 has a Mean relative activity of 0.6906. In the case of B23, the Mean relative activity is reported as 1.099. Molecule B24 has a Mean relative activity of 1.054. Molecule B25 has a Mean relative activity of 0.7254. B26 was tested, and the Mean relative activity was 0.7299. For B27, the Mean relative activity was 0.719. B28 was tested, and the Mean relative activity was 0.751. B29 gave a Mean relative activity of 0.7264. In the case of B30, the Mean relative activity is reported as 0.743. For B31, the Mean relative activity was 0.7179.
